From patent US20240301064A1 (published 2024)

How the values were obtained:
[1] = biological target: PD-1 on PD-1 reporter Jurkat cells; assay: cell-based or functional assay
mouse PD-1 = biological target: T1, mouse PD-1 (mouse, UniProt Q02242 25-167, limits assumed); assay: BLI, antibody on AHC tip
T1 sequence (looked up): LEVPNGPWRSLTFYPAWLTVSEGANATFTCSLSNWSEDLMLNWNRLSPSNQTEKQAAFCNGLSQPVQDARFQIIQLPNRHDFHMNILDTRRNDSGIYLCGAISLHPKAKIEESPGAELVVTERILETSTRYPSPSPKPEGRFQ

cynomolgus PD-1 = biological target: T2, cynomolgus PD-1 (cynomolgus); assay: BLI, antibody on AHC tip, soluble PD-1
T2 construct: also called cyno PD-1

human PD-1 = biological target: T3, human PD-1 (human, UniProt Q15116 25-167, limits assumed); assay: BLI, antibody on AHC tip, soluble PD-1
T3 construct: also called huPD-1
T3 sequence (Q15116 25-167 limits assumed): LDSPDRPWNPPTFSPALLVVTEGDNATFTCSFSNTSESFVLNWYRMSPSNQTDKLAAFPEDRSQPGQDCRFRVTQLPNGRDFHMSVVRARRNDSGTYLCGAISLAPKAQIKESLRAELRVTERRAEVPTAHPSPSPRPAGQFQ

human MAdCAM = biological target: T4, human MAdCAM (human, UniProt Q13477 19-317, limits assumed); assay: BLI, antibody on AHC tip, soluble MAdCAM
T4 construct: also called huMAdCAM
T4 sequence (looked up): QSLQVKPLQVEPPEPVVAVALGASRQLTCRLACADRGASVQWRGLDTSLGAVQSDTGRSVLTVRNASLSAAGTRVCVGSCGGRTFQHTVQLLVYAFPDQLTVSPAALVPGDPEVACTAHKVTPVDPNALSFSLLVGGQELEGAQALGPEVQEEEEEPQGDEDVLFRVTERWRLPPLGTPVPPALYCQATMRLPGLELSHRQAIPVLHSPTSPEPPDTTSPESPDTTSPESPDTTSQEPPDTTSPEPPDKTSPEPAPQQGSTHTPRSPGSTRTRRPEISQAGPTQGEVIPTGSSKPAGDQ
Method: (§1) Anti-human IgG Fc (AHC) biosensors were equilibrated in assay buffer for 20 minutes. Test article was diluted to 10 μg/mL in assay buffer (lx PBS, 1% BSA, 0.05% Tween20). A seven-point serial dilution of human and cynomolgus PD-1 or human, cynomolgus and mouse MAdCAM was prepared in assay buffer, starting at 1000 nM down to 15.625 nM. For PD-1 binding, test article was loaded on tips for 180 s followed by a 180 s association phase with PD-1 and 240 s dissociation phase in assay buffer. For MAdCAM binding, test article was loaded on tips for 180 s followed by a 120 s association phase with MAdCAM and 180 s dissociation phase in assay buffer. […] Accordingly, PMAB65 binds human, cyno, and mouse PD-1 and MAdCAM.

mouse MAdCAM = biological target: T5, mouse MAdCAM (mouse, UniProt Q61826 22-364); assay: BLI, antibody on AHC tip, soluble MAdCAM
T5 sequence (looked up): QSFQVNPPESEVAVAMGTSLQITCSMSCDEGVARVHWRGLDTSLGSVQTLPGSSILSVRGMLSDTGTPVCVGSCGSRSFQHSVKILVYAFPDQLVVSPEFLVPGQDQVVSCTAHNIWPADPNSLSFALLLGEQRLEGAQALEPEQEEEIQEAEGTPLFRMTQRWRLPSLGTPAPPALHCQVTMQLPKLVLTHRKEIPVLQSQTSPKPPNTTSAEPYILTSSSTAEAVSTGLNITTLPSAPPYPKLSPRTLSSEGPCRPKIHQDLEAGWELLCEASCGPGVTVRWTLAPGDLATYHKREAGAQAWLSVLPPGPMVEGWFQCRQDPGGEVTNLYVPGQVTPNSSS
Method: as §1

cynomolgus MAdCAM = biological target: T6, cynomolgus MAdCAM (cynomolgus); assay: BLI, antibody on AHC tip, soluble MAdCAM
T6 chain: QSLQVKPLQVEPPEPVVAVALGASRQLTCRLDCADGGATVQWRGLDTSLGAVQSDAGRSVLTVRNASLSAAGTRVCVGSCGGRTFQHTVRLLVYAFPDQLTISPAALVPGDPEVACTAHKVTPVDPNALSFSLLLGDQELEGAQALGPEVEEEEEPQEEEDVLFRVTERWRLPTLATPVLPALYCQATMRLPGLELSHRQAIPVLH
Method: as §1

B1: PMAB65 (bispecific antibody, human IgG1, kappa)
heavy: EVQLLESGGGLVQPGGSLRLSCAASGFTFSSYDMSWVRQAPGKGLEWVSGITISGGSTYYADSVKGRFTISRDNSKNTLYLQMNSLRAEDTAVYYCARGRGGSGWLDYWGQGTTVTVSSASTKGPSVFPLAPSSKSTSGGTAALGCLVKDYFPEPVTVSWNSGALTSGVHTFPAVLQSSGLYSLSSVVTVPSSSLGTQTYICNVNHKPSNTKVDKKVEPKSCDKTHTCPPCPAPEAAGAPSVFLFPPKPKDTLMISRTPEVTCVVVDVSHEDPEVKFNWYVDGVEVHNAKTKPREEQYNSTYRVVSVLTVLHQDWLNGKEYKCKVSNKALPAPIEKTISKAKGQPREPQVYTLPPSREEMTKNQVSLTCLVKGFYPSDIAVEWESNGQPENNYKTTPPVLDSDGSFFLYSKLTVDKSRWQQGNVFSCSVMHEALHNHYTQKSLSLSPGGGGGSGGGGSGGGGSEVQLLESGGGLVQPGGSLRLSCAASGFTFSSYWMHWVRQAPGKGLEWVSYISGSGGYTNYADSVKGRFTISRDNSKNTLYLQMNSLRAEDTAVYYCARDRPYYYDMDVWGKGTTVTVSSGGGGSGGGGSGGGGSGGGGSDIQMTQSPSSLSASVGDRVTITCRASQSISSSLAWYQQKPGKAPKLLIYAASSLQSGVPSRFSGSGSGTDFTLTISSLQPEDFATYYCQQYKSYPVTFGQGTKVEIK
light: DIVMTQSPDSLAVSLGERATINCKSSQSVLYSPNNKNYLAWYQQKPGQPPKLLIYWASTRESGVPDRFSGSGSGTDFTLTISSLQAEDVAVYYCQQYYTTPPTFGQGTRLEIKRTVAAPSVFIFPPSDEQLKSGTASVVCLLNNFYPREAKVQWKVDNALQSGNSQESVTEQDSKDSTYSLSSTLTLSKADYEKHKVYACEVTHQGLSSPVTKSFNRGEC
- PD-1 reporter Jurkat cells on test-article-loaded MAdCAM-expressing CHO cells; EC50 [1]: 0.78 nM
- SHP-2 recruitment, Ig-tethered test article, PD-1 reporter Jurkat cells; EC50 [1]: 3.04 nM
- binding result (mouse PD-1): no binding
- Kd (cynomolgus PD-1): 30.3 nM
- Kd (human PD-1): 32.6 nM
- Kd (human MAdCAM): 75.5 nM
- Kd (mouse MAdCAM): 269 nM
- Kd (cynomolgus MAdCAM): 24.3 nM
